Results reported in US20240400657A1 (MorphoSys, published 2024).

How the values were obtained:
[1] = biological target: T1, cynomolgus C5aR_NT-bio peptide (cynomolgus monkey, biotin tag (position not given)); experiment: BLI (Octet), apparent (bivalent)
T1 construct: Chemically synthesized linear peptide (Genscript); also called cynomolgus C5aR N-terminal peptide; cynomolgus C5aR peptide
T1 peptide: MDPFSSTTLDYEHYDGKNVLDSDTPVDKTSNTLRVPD

Cytochrome C = experiment: Protein Panel Profiling (3P), MSD ECL, coated antigen, IgG 10 nM
Protocol: (§1) 32 different proteins and controls were coated on two 384-well MSD standard plates at a concentration of 1.0 μg/mL at 4° C. over night. The coating solution was discarded and plates were blocked with 50 μL 3% (w/v) BSA in PBS for one hour at RT on a microtiter plate shaker (˜500 rpm) followed by three washing steps with 50 μL washing buffer (PBS with 0.05% (v/v) Tween 20). IgG samples were diluted to 100 nM and 10 nM in assay buffer (PBS with 0.5% (w/v) BSA, 0.05% (v/v) Tween 20). As controls, isotype control antibody MOR03207 (IgG1f_AEASS) and assay buffer were used. Samples and controls were added at 30 μL/well and incubated for three hours at RT on a microtiter plate shaker. The plates were washed three times and 30 μL detection antibody (ECL-labeled anti-human Fab) were added per well and incubated for one hour on a microtiter plate shaker (˜500 rpm). After washing the MSD plate and adding 35 μL/well MSD Read Buffer T with surfactant, electro-chemiluminescence signals were detected using a SECTOR® Imager S600 instrument (Meso Scale Diagnostics).
(§2) For evaluation, binding signals of the antibody sample to a certain protein were divided by the respective binding signals of the reference antibody MOR03207 resulting in a binding ratio (BR). The cumulative binding ratio (CBR) of all proteins except the controls (25 in total) was then calculated: CBR up to 150 indicates an IgG without detectable unspecific binding. Values above 150 indicates an IgG with increased unspecific binding compared to the reference antibody MOR03207.

Myoglobin = experiment: as above
Protocol: as §1, §2

Lectin = experiment: as above
Protocol: as §1, §2

RNase B = experiment: as above
Chain of RNase B (P61823 27-150): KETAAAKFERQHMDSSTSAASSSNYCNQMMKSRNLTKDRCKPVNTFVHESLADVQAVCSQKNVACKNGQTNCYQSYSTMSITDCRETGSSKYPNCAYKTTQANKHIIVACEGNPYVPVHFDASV
Protocol: as §1, §2

Serum albumin (h) = biological target: T2, Serum albumin (h) (human); experiment: as above
T2 construct: '(h)' on the sheet read as human
T2 sequence (P02768 25-609): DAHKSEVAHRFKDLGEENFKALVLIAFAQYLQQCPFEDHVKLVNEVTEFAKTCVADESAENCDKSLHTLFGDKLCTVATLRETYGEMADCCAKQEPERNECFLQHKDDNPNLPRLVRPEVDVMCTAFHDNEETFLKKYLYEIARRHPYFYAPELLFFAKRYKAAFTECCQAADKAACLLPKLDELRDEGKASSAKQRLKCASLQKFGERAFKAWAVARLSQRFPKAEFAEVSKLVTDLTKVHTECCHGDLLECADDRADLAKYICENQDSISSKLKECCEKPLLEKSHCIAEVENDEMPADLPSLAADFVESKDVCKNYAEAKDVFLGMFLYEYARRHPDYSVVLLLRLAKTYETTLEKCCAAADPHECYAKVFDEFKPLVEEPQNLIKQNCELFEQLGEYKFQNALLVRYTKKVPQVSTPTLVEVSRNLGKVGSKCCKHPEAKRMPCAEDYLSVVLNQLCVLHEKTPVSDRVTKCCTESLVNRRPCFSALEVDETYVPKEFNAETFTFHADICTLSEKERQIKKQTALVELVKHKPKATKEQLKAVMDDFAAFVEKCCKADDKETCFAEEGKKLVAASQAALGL
Protocol: as §1, §2

anti-human Fab (Dianova) = biological target: T3, anti-human Fab (Dianova); experiment: as above
T3 construct: control of the 3P panel; it captures human IgG as such, so a ratio of 1 means a signal equal to that of MOR03207
Protocol: as §1, §2

Fibrinogen (b) = Fibrinogen (b) (bovine); experiment: as above
Chain of Fibrinogen (b) (bovine) (P02672 20-615, chain 1 of 3): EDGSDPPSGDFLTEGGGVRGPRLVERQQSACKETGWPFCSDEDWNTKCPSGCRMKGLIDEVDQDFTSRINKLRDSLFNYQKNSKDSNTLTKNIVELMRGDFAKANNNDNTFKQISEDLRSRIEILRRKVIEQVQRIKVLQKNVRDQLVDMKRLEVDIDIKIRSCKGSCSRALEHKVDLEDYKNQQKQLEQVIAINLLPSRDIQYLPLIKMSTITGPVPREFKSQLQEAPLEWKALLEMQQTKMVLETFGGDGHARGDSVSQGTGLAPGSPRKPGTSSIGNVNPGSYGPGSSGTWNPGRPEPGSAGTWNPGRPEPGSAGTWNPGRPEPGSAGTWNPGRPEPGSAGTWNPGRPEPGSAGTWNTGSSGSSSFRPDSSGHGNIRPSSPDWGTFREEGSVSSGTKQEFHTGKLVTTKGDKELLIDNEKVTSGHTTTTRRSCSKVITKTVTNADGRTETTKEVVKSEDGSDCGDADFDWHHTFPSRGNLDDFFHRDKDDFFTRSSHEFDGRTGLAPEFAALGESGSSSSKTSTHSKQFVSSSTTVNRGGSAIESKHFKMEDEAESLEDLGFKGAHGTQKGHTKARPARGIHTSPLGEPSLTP
Chain of Fibrinogen (b) (bovine) (P02676 whole entry, chain 2 of 3, further chain): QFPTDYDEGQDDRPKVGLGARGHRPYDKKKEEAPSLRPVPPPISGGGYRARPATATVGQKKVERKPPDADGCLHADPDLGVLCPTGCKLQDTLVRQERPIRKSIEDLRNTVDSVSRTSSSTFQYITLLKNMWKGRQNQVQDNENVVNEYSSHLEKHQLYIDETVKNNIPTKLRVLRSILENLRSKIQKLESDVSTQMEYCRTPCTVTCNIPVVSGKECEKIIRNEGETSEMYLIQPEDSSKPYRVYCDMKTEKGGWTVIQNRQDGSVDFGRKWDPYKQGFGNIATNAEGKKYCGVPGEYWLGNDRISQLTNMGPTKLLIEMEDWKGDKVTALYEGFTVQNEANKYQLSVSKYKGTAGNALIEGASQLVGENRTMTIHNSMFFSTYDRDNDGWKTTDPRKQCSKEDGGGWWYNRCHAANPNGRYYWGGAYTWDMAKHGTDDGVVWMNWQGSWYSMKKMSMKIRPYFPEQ
Chain of Fibrinogen (b) (bovine) (P12799 25-444, chain 3 of 3, further chain): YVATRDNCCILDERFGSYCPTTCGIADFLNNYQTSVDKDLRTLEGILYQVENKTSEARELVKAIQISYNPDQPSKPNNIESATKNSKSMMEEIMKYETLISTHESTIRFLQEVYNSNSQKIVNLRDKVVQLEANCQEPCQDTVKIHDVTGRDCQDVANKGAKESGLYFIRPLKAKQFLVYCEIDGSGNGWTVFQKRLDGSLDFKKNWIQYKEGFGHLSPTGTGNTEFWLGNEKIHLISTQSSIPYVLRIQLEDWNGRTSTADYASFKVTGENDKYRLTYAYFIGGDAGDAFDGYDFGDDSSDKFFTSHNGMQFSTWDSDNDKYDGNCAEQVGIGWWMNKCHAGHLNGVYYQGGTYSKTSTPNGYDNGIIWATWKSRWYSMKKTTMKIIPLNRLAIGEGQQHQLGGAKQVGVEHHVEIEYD
Protocol: as §1, §2

[2] = biological target: T4, Cell surface rec. 2_Fc (h); experiment: as above
T4 construct: identity not disclosed
Protocol: as §1, §2

[3] = biological target: T5, Cell surface rec. 3_Fc (h); experiment: as above
T5 construct: identity not disclosed
Protocol: as §1, §2

GFP = experiment: as above
Protocol: as §1, §2

bovine transferrin = bovine transferrin (bovine, UniProt Q29443 20-704); experiment: as above
Chain of bovine transferrin (Q29443 20-704 limits assumed): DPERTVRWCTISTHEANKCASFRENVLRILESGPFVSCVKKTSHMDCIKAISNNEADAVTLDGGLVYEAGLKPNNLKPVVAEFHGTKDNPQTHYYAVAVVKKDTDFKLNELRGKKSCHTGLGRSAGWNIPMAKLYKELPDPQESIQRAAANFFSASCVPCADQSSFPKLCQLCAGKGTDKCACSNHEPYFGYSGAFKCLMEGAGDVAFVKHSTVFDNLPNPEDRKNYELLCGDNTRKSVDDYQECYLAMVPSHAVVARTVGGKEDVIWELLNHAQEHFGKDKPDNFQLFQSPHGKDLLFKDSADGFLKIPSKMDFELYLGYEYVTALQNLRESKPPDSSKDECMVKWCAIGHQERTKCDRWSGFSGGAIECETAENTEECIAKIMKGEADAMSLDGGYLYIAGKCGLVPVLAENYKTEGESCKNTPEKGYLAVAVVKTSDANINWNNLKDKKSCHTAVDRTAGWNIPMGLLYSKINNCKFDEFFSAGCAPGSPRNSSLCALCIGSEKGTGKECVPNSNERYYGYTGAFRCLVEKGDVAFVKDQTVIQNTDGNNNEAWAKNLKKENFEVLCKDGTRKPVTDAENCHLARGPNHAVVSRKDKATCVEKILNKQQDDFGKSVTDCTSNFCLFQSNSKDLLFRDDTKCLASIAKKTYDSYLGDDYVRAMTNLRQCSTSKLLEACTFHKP
Protocol: as §1, §2

[4] = biological target: T6, human C5aR_NT-bio peptide (human, biotin tag (position not given)); experiment: as above
T6 construct: Chemically synthesized linear peptide (Genscript); also called human C5aR N-terminal peptide; human C5aR peptide
T6 peptide: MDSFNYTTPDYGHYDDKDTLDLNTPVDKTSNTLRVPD

[5] = biological target: T7, full-length human ChemR23 expressed on CHO Flp-In cells (human, UniProt Q99788 1-373); experiment: FACS, CHO Flp-In cells expressing human ChemR23, single IgG concentration
T7 construct: also called Chemokine-like receptor 1
T7 sequence: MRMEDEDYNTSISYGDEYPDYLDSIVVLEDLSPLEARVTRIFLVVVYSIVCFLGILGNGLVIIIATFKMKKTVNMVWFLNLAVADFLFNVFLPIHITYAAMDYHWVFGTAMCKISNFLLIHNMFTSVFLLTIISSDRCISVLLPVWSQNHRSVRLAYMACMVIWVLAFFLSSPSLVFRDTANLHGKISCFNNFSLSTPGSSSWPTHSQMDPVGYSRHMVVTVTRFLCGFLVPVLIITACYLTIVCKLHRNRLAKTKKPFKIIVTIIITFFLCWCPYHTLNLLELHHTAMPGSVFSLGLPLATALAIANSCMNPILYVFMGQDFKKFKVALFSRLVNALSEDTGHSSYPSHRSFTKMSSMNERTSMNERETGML

[6] = biological target: T6, human C5aR_NT-bio peptide; experiment: SPR (Biacore T200), IgG captured on anti-human-Fc, peptide as analyte, 1:1 fit, monovalent
[7] = biological target: T8, Mouse FcRn p51 [1-297]/AviHis/p14 biotinylated (mouse, UniProt Q61559 22-298; P01887 21-119, biotinylated in vitro with BirA (Avi tag)); experiment: BLI (Octet HTX), biotinylated FcRn on SA sensors, IgG titrated, steady state fit, apparent KD, pH 6.0
T8 construct: Heterodimer; UniProt Q61559 (p51); also called Murine FcRn
T8 chain 1: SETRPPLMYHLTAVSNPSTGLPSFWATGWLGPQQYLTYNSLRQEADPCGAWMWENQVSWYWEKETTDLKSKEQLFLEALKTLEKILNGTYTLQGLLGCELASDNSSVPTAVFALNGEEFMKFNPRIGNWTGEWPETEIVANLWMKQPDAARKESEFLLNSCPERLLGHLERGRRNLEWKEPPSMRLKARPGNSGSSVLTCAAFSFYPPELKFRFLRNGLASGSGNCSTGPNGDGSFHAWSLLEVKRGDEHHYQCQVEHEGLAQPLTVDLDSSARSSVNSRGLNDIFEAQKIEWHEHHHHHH
T8 chain 2: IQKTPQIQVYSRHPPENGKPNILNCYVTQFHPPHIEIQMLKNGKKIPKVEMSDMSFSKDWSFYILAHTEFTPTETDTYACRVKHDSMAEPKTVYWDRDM
Description: (§3) 0.5 nm of biotinylated human, cynomolgus, mouse and rat FcRn were captured on streptavidin (SA) sensors (FortéBIO, Pall Life Sciences). […] All sensorgrams were fitted using Data Analysis Software 10.0 (FortéBIO, Pall Life Sciences) to determine the apparent affinity and the data was fitted with a steady state model.

[8] = biological target: T9, Rat FcRn p51 [1-298]/AviHis/p14 biotinylated (rat, UniProt P13599 23-299; P07151 21-119, biotinylated in vitro with BirA (Avi tag)); experiment: as above
T9 construct: Heterodimer; UniProt P13599 (p51)
T9 sequence 1: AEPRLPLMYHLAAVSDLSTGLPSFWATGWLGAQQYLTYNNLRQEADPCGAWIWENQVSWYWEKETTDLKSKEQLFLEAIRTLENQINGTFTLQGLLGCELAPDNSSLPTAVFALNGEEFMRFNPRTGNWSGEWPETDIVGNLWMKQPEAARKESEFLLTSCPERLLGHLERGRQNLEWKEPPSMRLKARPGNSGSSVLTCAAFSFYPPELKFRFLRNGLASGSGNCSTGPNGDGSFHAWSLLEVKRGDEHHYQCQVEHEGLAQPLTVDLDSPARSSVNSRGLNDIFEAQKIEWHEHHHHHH
T9 sequence 2: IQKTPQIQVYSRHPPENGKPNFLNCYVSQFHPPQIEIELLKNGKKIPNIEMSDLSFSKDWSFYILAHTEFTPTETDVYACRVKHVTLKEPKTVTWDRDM
Description: as §3

| Binder | fold weaker binding than to the human C5aR peptide [1] [fold] | binding ratio (signal / signal of MOR03207) (Cytochrome C) | binding ratio (signal / signal of MOR03207) (Myoglobin) | binding ratio (signal / signal of MOR03207) (Lectin) | binding ratio (signal / signal of MOR03207) (RNase B) | binding ratio (signal / signal of MOR03207) (Serum albumin (h)) | binding ratio (signal / signal of MOR03207) (anti-human Fab (Dianova)) | binding ratio (signal / signal of MOR03207) (Fibrinogen (b)) | binding ratio (signal / signal of MOR03207) [2] | binding ratio (signal / signal of MOR03207) [3] | binding ratio (signal / signal of MOR03207) (GFP) | binding ratio (signal / signal of MOR03207) (bovine transferrin) | binding ratio (signal / signal of MOR03207) [4] | binding result [5] | Kd [6] [nM] | koff [6] [s⁻¹] | kon [6] [M⁻¹ s⁻¹] | Kd [7] [nM] | Kd [8] [nM] |
| --- | --- | --- | --- | --- | --- | --- | --- | --- | --- | --- | --- | --- | --- | --- | --- | --- | --- | --- | --- |
| MAB #2 (antibody, human IgG1, lambda, lambda 1 light chain) heavy: EVQLVESGGGLVKPGGSLRLSCAASGFTFSSYAMHWVRQAPGKGLEWVGRIKSVAQGGTTDYAAHVKGRFTISRDDSKNTLYLQMNSLKTEDTAVYYCARVSHSTFDVWGQGTLVTVSSASTKGPSVFPLAPSSKSTSGGTAALGCLVKDYFPEPVTVSWNSGALTSGVHTFPAVLQSSGLYSLSSVVTVPSSSLGTQTYICNVNHKPSNTKVDKRVEPKSCDKTHTCPPCPAPEAEGAPSVFLFPPKPKDTLMISRTPEVTCVVVDVSHEDPEVKFNWYVDGVEVHNAKTKPREEQYNSTYRVVSVLTVLHQDWLNGKEYKCKVSNKALPSSIEKTISKAKGQPREPQVYTLPPSREEMTKNQVSLTCLVKGFYPSDIAVEWESNGQPENNYKTTPPVLDSDGSFFLYSKLTVDKSRWQQGNVFSCSVMHEALHNHYTQKSLSLSPGK light: not shown | ~1000 | 1 | 1 | 1 | 1 | 1 | 1 | 1 | 1 | 2 | 1 | 4 | 46 | no binding (tested: 300 nM) | 29 | 0.00127 | 43300 | 7.3 | 10 |
| MAB #1 (antibody, human IgG1, lambda, lambda 1 light chain, VH3-15 framework) heavy: EVQLVESGGGLVKPGGSLRLSCAASGFTFSSYAMHWVRQAPGKGLEWVGRIKSKAQGGTTDYAAHVKGRFTISRDDSKNTLYLQMNSLKTEDTAVYYCARVSFSTFDVWGQGTLVTVSSASTKGPSVFPLAPSSKSTSGGTAALGCLVKDYFPEPVTVSWNSGALTSGVHTFPAVLQSSGLYSLSSVVTVPSSSLGTQTYICNVNHKPSNTKVDKRVEPKSCDKTHTCPPCPAPEAEGAPSVFLFPPKPKDTLMISRTPEVTCVVVDVSHEDPEVKFNWYVDGVEVHNAKTKPREEQYNSTYRVVSVLTVLHQDWLNGKEYKCKVSNKALPSSIEKTISKAKGQPREPQVYTLPPSREEMTKNQVSLTCLVKGFYPSDIAVEWESNGQPENNYKTTPPVLDSDGSFFLYSKLTVDKSRWQQGNVFSCSVMHEALHNHYTQKSLSLSPGK light: not shown | ~1000 | 1 | 1 | 1 | 1 | 2 | 1 | 1 | 1 | 2 | 1 | 8 | 82 | no binding (tested: 300 nM) | 36 | 0.00179 | 50100 | 4.3 | 5.7 |
